Reference: patent publication US20090264359A1, “FPLR-1 INHIBITORS FOR USE IN DISEASES INVOLVING AMYLOID-INDUCED INFLAMMATORY EVENTS (FLIPR AND FLIPR-LIKE) AND IMMUNECOMPLEX-[…] DISEASES” (published 2009)

What was measured:
[1] = target: FcγRs on human neutrophils and peripheral blood monocytes
[2] = target: FPR on human neutrophils and monocytes (human, UniProt P21462); assay: cell-based or functional assay

B1: FLIPr-like (other)
chain: FFSYEWKGLEIAKNLADQAKKDDERADKLIKEADEKNEHYKGKTVEDLYVIAKKMGKGNTIAVVKIKDGGKNGYYTFDITRPLEEHRKNIPVVKNGEIDSITWY
modifications: FITC label in the flow cytometric binding assays (FLIPr-like-FITC); unlabelled elsewhere
Q: With B1 as the binder, how does the minimal effective concentration in phagocytosis by human neutrophils [1] read?
A: The minimal effective concentration in phagocytosis by human neutrophils was 0.19 µg/mL.

Q: And the “FPR blocking activity (fMLF-induced activation of neutrophils)” value [2]?
A: The value was about 100 fold.
